Reference: publication PMC9482650, “Quantitative fragmentomics allow affinity mapping of interactomes” (Nature Communications, 2022)

Experiments:
Test in all cases: holdup assay
Parameters in all cases: key: below the threshold = too weak to quantify, mostly under pKd 3.1 to 4
NHERF3_3, Q5T2W1 = target: T1, NHERF3_3, Q5T2W1
T1 sequence (Q5T2W1 238-333, limits assumed, looked up): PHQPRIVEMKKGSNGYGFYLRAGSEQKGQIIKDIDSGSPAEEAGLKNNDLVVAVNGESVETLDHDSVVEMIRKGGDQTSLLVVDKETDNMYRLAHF

GORASP2, Q9H8Y8 = target: GORASP2, Q9H8Y8
Inadl_5, Q8NI35 = target: Inadl_5, Q8NI35
Chain of Inadl_5, Q8NI35 (Q8NI35 673-780): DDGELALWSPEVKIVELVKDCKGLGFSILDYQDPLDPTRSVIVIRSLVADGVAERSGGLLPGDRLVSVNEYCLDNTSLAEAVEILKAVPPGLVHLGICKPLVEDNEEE

Inadl_9, Q8NI35 = target: Inadl_9, Q8NI35
Chain of Inadl_9, Q8NI35 (Q8NI35 1530-1615): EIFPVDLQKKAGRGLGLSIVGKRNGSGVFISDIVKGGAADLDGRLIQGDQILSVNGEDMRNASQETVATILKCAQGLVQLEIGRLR

MAGI3_2, Q5TCQ9 = target: MAGI3_2, Q5TCQ9
Chain of MAGI3_2, Q5TCQ9 (Q5TCQ9 398-503): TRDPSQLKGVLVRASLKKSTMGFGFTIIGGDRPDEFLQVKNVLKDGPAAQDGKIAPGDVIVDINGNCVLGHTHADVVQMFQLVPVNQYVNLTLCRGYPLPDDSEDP

SNX27, Q96L92 = target: SNX27, Q96L92
PICK1, Q9NRD5 = target: PICK1, Q9NRD5
Chain of PICK1, Q9NRD5 (Q9NRD5 17-115): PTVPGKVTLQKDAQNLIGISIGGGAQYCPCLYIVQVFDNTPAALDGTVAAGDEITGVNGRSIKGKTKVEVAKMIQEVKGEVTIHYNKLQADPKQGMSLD

HTRA3, P83110 = target: T2, HTRA3, P83110
T2 sequence (P83110 354-453, limits assumed, looked up): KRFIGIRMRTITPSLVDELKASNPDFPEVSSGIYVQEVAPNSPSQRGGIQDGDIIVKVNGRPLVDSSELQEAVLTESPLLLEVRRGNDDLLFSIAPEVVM

HTRA1, Q92743 = target: HTRA1, Q92743
Chain of HTRA1, Q92743 (Q92743 360-477): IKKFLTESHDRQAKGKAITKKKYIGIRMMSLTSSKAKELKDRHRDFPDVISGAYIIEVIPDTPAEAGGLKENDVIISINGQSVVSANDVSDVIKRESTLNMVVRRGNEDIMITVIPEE

ARHGEF11, O15085 = target: T3, ARHGEF11, O15085
T3 sequence (O15085 42-136, limits assumed, looked up): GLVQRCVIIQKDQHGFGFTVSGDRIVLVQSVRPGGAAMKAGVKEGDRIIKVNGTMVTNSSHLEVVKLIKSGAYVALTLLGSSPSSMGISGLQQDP

DFNB31_2, Q9P202 = target: T4, DFNB31_2, Q9P202
T4 sequence (Q9P202 274-371, limits assumed, looked up): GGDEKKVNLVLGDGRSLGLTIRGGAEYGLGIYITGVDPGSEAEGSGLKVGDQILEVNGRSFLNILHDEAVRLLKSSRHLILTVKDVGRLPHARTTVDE

APBA2_2, Q99767 = target: T5, APBA2_2, Q99767
T5 sequence (Q99767 654-744, limits assumed, looked up): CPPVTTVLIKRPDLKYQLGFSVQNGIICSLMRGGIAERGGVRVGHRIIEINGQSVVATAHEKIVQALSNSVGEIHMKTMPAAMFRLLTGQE

TJP1_2, Q07157 = target: TJP1_2, Q07157
Chain of TJP1_2, Q07157 (Q07157 181-274): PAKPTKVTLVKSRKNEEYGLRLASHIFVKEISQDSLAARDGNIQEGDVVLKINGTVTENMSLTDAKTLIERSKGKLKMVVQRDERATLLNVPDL

DFNB31_3, Q9P202 = target: T6, DFNB31_3, Q9P202
T6 sequence (Q9P202 811-907, limits assumed, looked up): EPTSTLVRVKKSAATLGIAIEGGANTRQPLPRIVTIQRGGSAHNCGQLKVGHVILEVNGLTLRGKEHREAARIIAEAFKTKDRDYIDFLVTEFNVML

MPDZ_10, O75970 = target: T7, MPDZ_10, O75970
T7 sequence (O75970 1624-1722, limits assumed, looked up): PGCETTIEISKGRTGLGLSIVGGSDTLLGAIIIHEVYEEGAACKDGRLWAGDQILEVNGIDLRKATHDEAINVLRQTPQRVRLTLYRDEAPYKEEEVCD

Inadl_1, Q8NI35 = target: Inadl_1, Q8NI35
Chain of Inadl_1, Q8NI35 (Q8NI35 113-229): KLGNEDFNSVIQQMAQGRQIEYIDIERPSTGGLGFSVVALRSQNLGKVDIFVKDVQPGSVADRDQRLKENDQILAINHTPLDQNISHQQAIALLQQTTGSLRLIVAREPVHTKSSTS

LNX2_2, Q8N448 = target: T8, LNX2_2, Q8N448
T8 sequence (Q8N448 334-432, limits assumed, looked up): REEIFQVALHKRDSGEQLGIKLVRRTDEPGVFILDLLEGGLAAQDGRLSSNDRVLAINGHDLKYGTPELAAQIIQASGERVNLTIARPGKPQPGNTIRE

Inadl_4, Q8NI35 = target: Inadl_4, Q8NI35
Chain of Inadl_4, Q8NI35 (Q8NI35 547-651): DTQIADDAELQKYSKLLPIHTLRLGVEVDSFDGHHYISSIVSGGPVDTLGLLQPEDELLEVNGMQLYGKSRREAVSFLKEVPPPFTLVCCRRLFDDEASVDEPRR

IL16_3, Q14005 = target: IL16_3, Q14005
Chain of IL16_3, Q14005 (Q14005 1107-1207): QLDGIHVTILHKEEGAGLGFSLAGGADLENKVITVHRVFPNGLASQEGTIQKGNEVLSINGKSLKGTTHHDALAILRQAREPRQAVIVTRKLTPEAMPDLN

GOPC, Q9HD26 = target: GOPC, Q9HD26
MAGI1_1, Q96QZ7 = target: MAGI1_1, Q96QZ7
Chain of MAGI1_1, Q96QZ7 (Q96QZ7 1-106): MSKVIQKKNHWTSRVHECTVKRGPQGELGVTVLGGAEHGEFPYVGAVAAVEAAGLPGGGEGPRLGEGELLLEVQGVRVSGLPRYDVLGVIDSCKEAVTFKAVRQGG

GRIP2_4, Q9C0E4 = target: GRIP2_4, Q9C0E4
Chain of GRIP2_4, Q9C0E4 (Q9C0E4 446-548): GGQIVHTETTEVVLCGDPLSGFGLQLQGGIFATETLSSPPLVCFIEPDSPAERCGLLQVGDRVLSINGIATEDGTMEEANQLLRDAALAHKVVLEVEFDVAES

LNX2_3, Q8N448 = target: T9, LNX2_3, Q8N448
T9 sequence (Q8N448 463-564, limits assumed, looked up): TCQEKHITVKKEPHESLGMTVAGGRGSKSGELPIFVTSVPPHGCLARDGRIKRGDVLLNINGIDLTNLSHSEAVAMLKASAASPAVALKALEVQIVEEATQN

HTRA2, O43464 = target: HTRA2, O43464
Chain of HTRA2, O43464 (O43464 355-458): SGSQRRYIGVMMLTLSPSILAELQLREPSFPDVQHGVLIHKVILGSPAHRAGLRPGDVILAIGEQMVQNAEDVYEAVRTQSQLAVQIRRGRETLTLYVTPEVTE

DLG1_3, Q12959 = target: DLG1_3, Q12959
Chain of DLG1_3, Q12959 (Q12959 457-571): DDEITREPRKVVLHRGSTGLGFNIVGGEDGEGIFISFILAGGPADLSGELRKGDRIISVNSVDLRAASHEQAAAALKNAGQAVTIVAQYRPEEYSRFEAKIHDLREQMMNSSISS

MAST1, Q9Y2H9 = target: MAST1, Q9Y2H9
Chain of MAST1, Q9Y2H9 (Q9Y2H9 962-1065): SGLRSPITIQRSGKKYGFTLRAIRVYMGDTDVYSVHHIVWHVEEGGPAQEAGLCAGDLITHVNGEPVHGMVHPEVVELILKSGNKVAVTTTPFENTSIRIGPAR

GRIP2_5, Q9C0E4 = target: GRIP2_5, Q9C0E4
Chain of GRIP2_5, Q9C0E4 (Q9C0E4 544-642): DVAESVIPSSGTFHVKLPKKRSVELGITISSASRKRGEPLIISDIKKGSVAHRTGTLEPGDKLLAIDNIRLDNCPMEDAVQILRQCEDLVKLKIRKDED

GRID2IP_2, A4D2P6 = target: GRID2IP_2, A4D2P6
Chain of GRID2IP_2, A4D2P6 (A4D2P6 272-370): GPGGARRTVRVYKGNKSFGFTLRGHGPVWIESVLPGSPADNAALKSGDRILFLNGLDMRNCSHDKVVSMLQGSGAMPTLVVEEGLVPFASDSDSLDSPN

TJP1_3, Q07157 = target: TJP1_3, Q07157
Chain of TJP1_3, Q07157 (Q07157 416-512): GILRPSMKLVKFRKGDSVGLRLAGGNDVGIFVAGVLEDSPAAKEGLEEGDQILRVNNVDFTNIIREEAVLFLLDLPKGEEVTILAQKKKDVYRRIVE

[1] = plain residues with an end cap or a label only (N-terminal biotin on a linker: ttds)
[2] = plain residues with an end cap or a label only (N-terminal biotin on a linker: ahx)

## SEKHFRETEV [HTLV1-TAX1, P03409]
NHERF3_3, Q5T2W1; [1]
  pKd: below the threshold
GORASP2, Q9H8Y8; [1]
  pKd: below the threshold
Inadl_5, Q8NI35; [1]
  pKd: below the threshold
Inadl_9, Q8NI35; [1]
  pKd: below the threshold
MAGI3_2, Q5TCQ9; [1]
  pKd: 4.99
SNX27, Q96L92; [1]
  pKd: 5.72
PICK1, Q9NRD5; [1]
  pKd: below the threshold
HTRA3, P83110; [1]
  pKd: below the threshold
HTRA1, Q92743; [1]
  pKd: 3.97
ARHGEF11, O15085; [1]
  pKd: 4.22
DFNB31_2, Q9P202; [1]
  pKd: 3.71
APBA2_2, Q99767; [1]
  pKd: below the threshold
TJP1_2, Q07157; [1]
  pKd: below the threshold
DFNB31_3, Q9P202; [1]
  pKd: below the threshold
MPDZ_10, O75970; [1]
  pKd: below the threshold
Inadl_1, Q8NI35; [1]
  pKd: below the threshold
LNX2_2, Q8N448; [1]
  pKd: 4.15
Inadl_4, Q8NI35; [1]
  pKd: below the threshold
IL16_3, Q14005; [1]
  pKd: below the threshold
GOPC, Q9HD26; [1]
  pKd: below the threshold
MAGI1_1, Q96QZ7; [1]
  pKd: below the threshold
GRIP2_4, Q9C0E4; [1]
  pKd: below the threshold
LNX2_3, Q8N448; [1]
  pKd: below the threshold
HTRA2, O43464; [1]
  pKd: below the threshold
DLG1_3, Q12959; [1]
  pKd: 5.22
MAST1, Q9Y2H9; [1]
  pKd: below the threshold
GRIP2_5, Q9C0E4; [1]
  pKd: below the threshold
GRID2IP_2, A4D2P6; [1]
  pKd: 3.84
TJP1_3, Q07157; [1]
  pKd: below the threshold

## EKLSSIESDV [GRIN2B, Q13224]
NHERF3_3, Q5T2W1; [2]
  pKd: below the threshold
GORASP2, Q9H8Y8; [2]
  pKd: below the threshold
Inadl_5, Q8NI35; [2]
  pKd: below the threshold
Inadl_9, Q8NI35; [2]
  pKd: below the threshold
MAGI3_2, Q5TCQ9; [2]
  pKd: 3.54
SNX27, Q96L92; [2]
  pKd: 3.87
PICK1, Q9NRD5; [2]
  pKd: below the threshold
HTRA3, P83110; [2]
  pKd: below the threshold
HTRA1, Q92743; [2]
  pKd: below the threshold
ARHGEF11, O15085; [2]
  pKd: 3.56
DFNB31_2, Q9P202; [2]
  pKd: below the threshold
APBA2_2, Q99767; [2]
  pKd: below the threshold
TJP1_2, Q07157; [2]
  pKd: below the threshold
DFNB31_3, Q9P202; [2]
  pKd: below the threshold
MPDZ_10, O75970; [2]
  pKd: 3.84
Inadl_1, Q8NI35; [2]
  pKd: below the threshold
LNX2_2, Q8N448; [2]
  pKd: below the threshold
Inadl_4, Q8NI35; [2]
  pKd: below the threshold
IL16_3, Q14005; [2]
  pKd: 3.57
GOPC, Q9HD26; [2]
  pKd: 3.63
MAGI1_1, Q96QZ7; [2]
  pKd: below the threshold
GRIP2_4, Q9C0E4; [2]
  pKd: below the threshold
LNX2_3, Q8N448; [2]
  pKd: below the threshold
HTRA2, O43464; [2]
  pKd: below the threshold
DLG1_3, Q12959; [2]
  pKd: below the threshold
MAST1, Q9Y2H9; [2]
  pKd: 4.04
GRIP2_5, Q9C0E4; [2]
  pKd: below the threshold
GRID2IP_2, A4D2P6; [2]
  pKd: below the threshold
TJP1_3, Q07157; [2]
  pKd: below the threshold
